Read-outs that look alike come from different tables or passages of the source. Each block holds one molecule with its values, some of them ahead of it.
Experiments:
[1] = molecular target: T1, SR-TOG3 construct of human CLASP2 (human); test: ITC
T1 sequence (O75122 whole entry, looked up): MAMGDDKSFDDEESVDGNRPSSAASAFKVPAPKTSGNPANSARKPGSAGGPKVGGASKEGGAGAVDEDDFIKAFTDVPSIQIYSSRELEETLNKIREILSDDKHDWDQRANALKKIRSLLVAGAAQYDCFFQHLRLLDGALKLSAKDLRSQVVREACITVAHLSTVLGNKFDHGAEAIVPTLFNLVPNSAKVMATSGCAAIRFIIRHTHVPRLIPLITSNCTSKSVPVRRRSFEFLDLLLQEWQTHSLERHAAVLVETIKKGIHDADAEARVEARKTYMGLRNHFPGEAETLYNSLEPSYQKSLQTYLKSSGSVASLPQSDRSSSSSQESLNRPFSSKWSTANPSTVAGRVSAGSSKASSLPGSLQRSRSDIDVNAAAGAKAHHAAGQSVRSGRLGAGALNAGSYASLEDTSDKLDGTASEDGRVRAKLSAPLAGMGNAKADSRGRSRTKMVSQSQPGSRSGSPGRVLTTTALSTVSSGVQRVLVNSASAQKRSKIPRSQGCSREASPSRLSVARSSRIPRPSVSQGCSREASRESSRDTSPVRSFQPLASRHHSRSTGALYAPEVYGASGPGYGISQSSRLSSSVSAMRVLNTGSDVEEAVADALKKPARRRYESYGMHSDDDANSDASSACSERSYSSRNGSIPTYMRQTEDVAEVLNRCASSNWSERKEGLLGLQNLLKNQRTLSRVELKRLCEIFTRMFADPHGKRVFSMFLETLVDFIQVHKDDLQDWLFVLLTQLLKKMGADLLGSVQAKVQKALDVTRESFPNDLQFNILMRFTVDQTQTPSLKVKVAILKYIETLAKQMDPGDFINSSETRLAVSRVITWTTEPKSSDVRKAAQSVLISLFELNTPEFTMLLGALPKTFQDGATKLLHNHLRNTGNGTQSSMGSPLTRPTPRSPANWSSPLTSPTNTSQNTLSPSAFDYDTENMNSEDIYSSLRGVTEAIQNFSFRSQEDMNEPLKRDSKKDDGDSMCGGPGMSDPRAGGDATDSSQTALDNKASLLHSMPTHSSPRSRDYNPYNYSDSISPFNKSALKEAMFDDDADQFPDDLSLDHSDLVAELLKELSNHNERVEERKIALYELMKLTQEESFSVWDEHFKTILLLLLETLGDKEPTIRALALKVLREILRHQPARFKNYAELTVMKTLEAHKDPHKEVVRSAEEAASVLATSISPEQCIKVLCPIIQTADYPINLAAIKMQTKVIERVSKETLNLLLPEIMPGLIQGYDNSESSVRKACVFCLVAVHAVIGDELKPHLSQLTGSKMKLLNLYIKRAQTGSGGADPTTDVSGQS

[2] = molecular target: T2, TOG2-SR construct of human CLASP2 (human); test: ITC
T2 sequence (O75122 whole entry, looked up): T1 sequence (O75122 whole entry, looked up)

[3] = molecular target: αβ-tubulin heterodimer isolated from porcine brain (porcine) (UniProt P02550); test: co-sedimentation
[4] = molecular target: T3, SR region of human CLASP2 (residues 311-648) (human, UniProt O75122 311-648); test: ITC
T3 sequence (looked up): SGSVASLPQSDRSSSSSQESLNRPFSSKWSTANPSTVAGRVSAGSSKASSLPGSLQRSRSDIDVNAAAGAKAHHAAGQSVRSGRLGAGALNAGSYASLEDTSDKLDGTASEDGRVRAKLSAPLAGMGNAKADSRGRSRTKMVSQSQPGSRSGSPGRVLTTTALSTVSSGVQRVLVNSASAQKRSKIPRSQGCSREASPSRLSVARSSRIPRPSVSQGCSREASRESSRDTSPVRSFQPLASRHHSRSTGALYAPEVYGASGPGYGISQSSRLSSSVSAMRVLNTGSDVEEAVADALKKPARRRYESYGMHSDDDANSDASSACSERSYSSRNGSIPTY

[5] = molecular target: T3, SR region of human CLASP2 (residues …); test: ITC; remark: listed apart in the source

Kd [1]: 1200 nM
stoichiometry N (CLASP2 versus EB1 dimer) [1]: 2
Kd [2]: 2000 nM
stoichiometry N (CLASP2 versus EB1 dimer) [2]: 2.2
Molecule: EB1 (dimeric) (from UniProt Q15691 1-268) (natural protein)

fold affinity relative to hC2-TOG2 [3]: 3 fold
B1: human CLASP2 TOG3 domain (hC2-TOG3; residues 649-881) (domain or fragment)
chain: MRQTEDVAEVLNRCASSNWSERKEGLLGLQNLLKNQRTLSRVELKRLCEIFTRMFADPHGKRVFSMFLETLVDFIQVHKDDLQDWLFVLLTQLLKKMGADLLGSVQAKVQKALDVTRESFPNDLQFNILMRFTVDQTQTPSLKVKVAILKYIETLAKQMDPGDFINSSETRLAVSRVITWTTEPKSSDVRKAAQSVLISLFELNTPEFTMLLGALPKTFQDGATKLLHNHLRN

Kd [4]: 3000 ± 400 nM
stoichiometry N [4]: 2 CLASP2 versus EB1 dimer
Kd [5]: 2000 ± 400 nM
stoichiometry N [5]: 2 CLASP2 versus EB1 dimer
B2: EB1 (dimeric) (natural protein, UniProt Q15691 1-268, looked up)
chain: MAVNVYSTSVTSDNLSRHDMLAWINESLQLNLTKIEQLCSGAAYCQFMDMLFPGSIALKKVKFQAKLEHEYIQNFKILQAGFKRMGVDKIIPVDKLVKGKFQDNFEFVQWFKKFFDANYDGKDYDPVAARQGQETAVAPSLVAPALNKPKKPLTSSSAAPQRPISTQRTAAAPKAGPGVVRKNPGVGNGDDEAAELMQQVNVLKLTVEDLEKERDFYFGKLRNIELICQENEGENDPVLQRIVDILYATDEGFVIPDEGGPQEEQEEY

From article PMC4646087 (Journal of molecular biology, 2015)
